According to patent US20110060580A1 (published 2011):

B1: human LXRβ-LBD (liver X receptor beta ligand binding domain, amino acids 213-461 of Seq. Id. No. 1) (receptor)
chain: GEGEGVQLTAAQELMIQQLVAAQLQCNKRSFSDQPKVTPWPLGADPQSRDARQQRFAHFTELAIISVQEIVDFAKQVPGFLQLGREDQIALLKASTIEIMLLETARRYNHETECITFLKDFTYSKDDFHRAGLQVEFINPIFEFSRAMRRLGLDDAEYALLIAINIFSADRPNVQEPGRVEALQQPYVEALLSYTRIKRPQDQLRFPRMLMKLVSLRTLSSVHSEQVFALRLQDKKLPPLLSEIWDVHE
notes: The His tag was removed by thrombin before crystallization; Id; No. 1; Each crystal also held a small-molecule agonist; also called LXR-LBD; hLXRbeta213G-460E

Experiments:
[1] = biological target: B1; assay: X-ray co-crystal structure (Example 1, space group P43)
Experimental: (§1) Protein used for crystallization of LXRβ-LBD together with 2-(4-{[2-(3-Chloro-phenyl)-5-methyl-oxazol-4-ylmethyl]-ethyl-amino }-phenyl)-1,1,1,3,3,3-hexafluoro-propan-2-ol has been purified as described above. The protein was incubated with ligand in a 12-fold molar excess for 2 hours at room temperature. A short co-activator peptide ([…]) (Seq. Id. No. 3) from SRC-1 was added in 12-fold molar excess and incubation continued overnight at 4 ° C. Prior to crystallization experiments the protein was centrifuged at 20000× g. The crystallization droplets were set up at 22 ° C. by mixing 1.5 μl of protein solution with 0.5 μl reservoir solution in vapour diffusion hanging drop experiments. Crystals appeared out of 0.2 M (NH₄)₂SO₄, 25% PEG 3350 after 1 day and grew to final size of 0.15 mm×0.15 mm×0.05 mm within 2 days.
(§2) Crystals were harvested with paraffin oil as cryoprotectant and then flash frozen in a 100 K N2 stream. Diffraction images were collected at a temperature of 100 K at the beamline X06SA of the Swiss Light Source and processed with the programs DENZO and […] yielding data to a resolution of 3.2 Å. Standard crystallographic programs from the CCP4 software suite were used to determine the structure by molecular replacement using an in-house LXRβ-LBD structure as search model. Refinement and model building cycles were performed with REFMAC and MOLOC, respectively (Table 1).

[2] = biological target: B1; assay: X-ray co-crystal structure (Example 3, space group P1)
Experimental: Protein used for crystallization of LXRβ-LBD together with - (R,S)-Benzenesulfonyl-(6chloro-2,3,4,9-tetrahydro-1H-carbazol-2-yl)-fluoro-acetic acid methyl ester has been purified as described above. The protein was incubated with ligand in a 15-fold molar excess for 2 hours at room temperature. A short co-activator peptide ([…]) (Seq. Id. No. 4) from SRC-1 was added in 3-fold molar excess and incubation continued overnight at 4 ° C. Prior to crystallization experiments the protein was concentrated to 12 mg/ml and centrifuged at 20000 ×g. The crystallization droplet was set up at room temperature by mixing 1.5 μl of protein solution with 0.5 μl reservoir solution in vapour diffusion hanging drop experiments. Crystals appeared out of 0.1 M Bis-Tris pH 5.5, 0.2 M (NH⁴⁾²SO₄, 25% PEG 3350 after 1 day and grew to final size of 0.2 mm×0.1 mm×0.05 mm within 2 days.
as §2, with “N₂” for “N2”, “2.3” for “3.2”, “LXR-LBD” for “LXRβ-LBD”, “Refinement and model building cycles were performed with REFMAC and MOLOC, respectively (Table 1).” left out

[3] = biological target: the molecule itself; assay: X-ray co-crystal structure (Example 1); homodimer
Experimental: as §1, §2

KDHQLLRYLLDKD (13-residue peptide from SRC-1) [short co-activator peptide (KDHQLLRYLLDKD) (Seq. Id. No. 3) from SRC-1]
binding result [1]: binds

ERHKILHRLLQEG (13-residue peptide from SRC-1) [short co-activator peptide (ERHKILHRLLQEG) (Seq. Id. No. 4) from SRC-1]
binding result [2]: binds

B1
binding result [3]: binds
